The source of these data is paper PMC5316886.

The test addresses recombinant XIAP, I. scapularis (as used in the native gel, the plate-coated ELISA and the ubiquitylation assay) (I. scapularis). Kind of test: ELISA; 0.2 μg of XIAP coated on the plate (0.5 M carbonate-bicarbonate pH 9.5); increasing concentrations of Bendless, room temperature 1 hour; detected with α-UbcH13.

On to “recombinant Bendless, I. scapularis (enzyme)”, for which the concentration at saturation of binding amounted to 9.1 µM.
